Data on four molecules can be found in ChEMBL document CHEMBL1208712, “Synthesis and anti-HCV activity of 3',4'-oxetane nucleosides” (Bioorg Med Chem Lett, 2010).

In data set [1] the target is T1, UMP-CMP kinase (Homo sapiens) (UniProt P30085).
T1 sequence (whole entry): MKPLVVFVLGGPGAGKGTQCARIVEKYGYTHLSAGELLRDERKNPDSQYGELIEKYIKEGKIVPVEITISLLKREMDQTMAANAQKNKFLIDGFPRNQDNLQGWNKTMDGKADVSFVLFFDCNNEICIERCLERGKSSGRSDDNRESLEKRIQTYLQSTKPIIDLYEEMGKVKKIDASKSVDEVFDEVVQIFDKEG
The data set can be described thus: Activity at human recombinant UMP-CMP kinase.

In data set [2] the test system is Nc1ccn([C@@H]2O[C@@]3(CO)CO[C@H]3[C@H]2F)c(=O)n1. The data set can be described thus: (§1) Ratio of Kcat/Km for human recombinant deoxycytidine kinase.
Data set [3] relates to Nc1ccn([C@@H]2O[C@@]3(CO)CO[C@H]3C2(F)F)c(=O)n1. Described as §1.
For data set [4], the system named is Nc1ccn([C@@H]2O[C@@]3(CO)CO[C@H]3[C@@H]2F)c(=O)n1. Described as §1.
Data set [5] has as its system Nc1ccn([C@@H]2O[C@@]3(CO)CO[C@H]3[C@H]2F)c(=O)n1. The data set is described as follows: (§2) Activity at human recombinant deoxycytidine kinase expressed in HepG2 cells. It counts as cell-based.
The test system of data set [6] is Nc1ccn([C@@H]2O[C@@]3(CO)CO[C@H]3C2(F)F)c(=O)n1. The data set is described as §2. In kind it is cell-based.
The subject of data set [7] is Nc1ccn([C@@H]2O[C@@]3(CO)CO[C@H]3[C@@H]2F)c(=O)n1. The data set is described as §2. It counts as cell-based.

Calls of active or inactive are those of the source. The calls are words filed in the database; no cut-off is given here.

Chain of Deoxycytidine kinase (Homo sapiens), P27707 (P27707 whole entry): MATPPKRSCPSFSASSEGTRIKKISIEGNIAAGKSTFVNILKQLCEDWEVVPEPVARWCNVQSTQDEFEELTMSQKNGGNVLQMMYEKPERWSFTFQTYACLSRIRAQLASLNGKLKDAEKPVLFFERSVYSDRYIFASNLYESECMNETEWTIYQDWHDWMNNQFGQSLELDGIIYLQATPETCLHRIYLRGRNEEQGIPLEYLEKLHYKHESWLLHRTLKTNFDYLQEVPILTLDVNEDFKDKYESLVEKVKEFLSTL

On to `Nc1ccn([C@@H]2O[C@@]3(CO)CO[C@H]3[C@@H]2F)c(=O)n1`, for which the result in data set [1] was inactive.

Regarding `Nc1ccn([C@@H]2O[C@@]3(CO)CO[C@H]3C2(F)F)c(=O)n1`, in data set [1], the outcome was inactive.

With “Deoxycytidine kinase (Homo sapiens), P27707”, the kcat/Km in data set [2] turned out to be 3.5 ×10⁻⁴ /µM/s. The kcat/Km (10'-3/microM/s) is 2.2 in data set [3] and 1.5 in data set [4]. Further, the Km worked out at 61 µM in data set [5], 27.6 µM in data set [6] and 81.1 µM in data set [7]. In addition, the values for the kcat in data set [5], in data set [6] and in data set [7] were 0.0214 s⁻¹, 0.0599 s⁻¹ and 0.122 s⁻¹, respectively.

On to `Nc1ccn([C@@H]2O[C@@]3(CO)CO[C@H]3[C@H]2F)c(=O)n1`, for which, in data set [1], the result was inactive.
